Publication PMC5433770, “Effect of N-terminal region of nuclear Drosophila melanogaster small heat shock protein DmHsp27 on function and quaternary structure” (PLoS ONE, 2017)

B1: DmHsp27 with deletion of the first 86 amino acids of the N-terminal region (Del_Nter) (domain or fragment, Drosophila melanogaster, UniProt P02518 87-213, looked up)
chain: KDGFQVCMDVSQFKPNELTVKVVDNTVVVEGKHEEREDGHGMIQRHFVRKYTLPKGFDPNEVVSTVSSDGVLTLKAPPPPSKEQAKSERIVQIQQTGPAHLSVKAPAPEAGDGKAENGSGEKMETSK
notes: DmHsp27 (Hsp27), Drosophila melanogaster, without the first 86 amino acids (N-terminal region); The Del-NTR forward primer carries an ATG before the codon of residue 87, so an added Met probably precedes residue 87 (surmise); also called DmHsp27Del-NTR; source: E. coli BL21 (DE3) pLysS, purified (Ni-NTA, SEC on Superose 6)
B2: DmHsp27 with deletion of the FGFG motif (29-32) (del_FGFG) (natural protein, Drosophila melanogaster, UniProt P02518 1-213, looked up)
chain: MSIIPLLHLARELDHDYRTDWGHLLEDDVHAHDLFHPRRLLLPNTLGLGRRRYSPYERSHGHHNQMSRRASGGPNALLPAVGKDGFQVCMDVSQFKPNELTVKVVDNTVVVEGKHEEREDGHGMIQRHFVRKYTLPKGFDPNEVVSTVSSDGVLTLKAPPPPSKEQAKSERIVQIQQTGPAHLSVKAPAPEAGDGKAENGSGEKMETSK
notes: DmHsp27 (Hsp27), Drosophila melanogaster, without the four residues F29 to G32 (FGFG); also called deletion FGFG (29–32); DmHsp27Del29-32; source: E. coli BL21 (DE3) pLysS, purified (Ni-NTA, SEC on Superose 6)
B3: Drosophila melanogaster small heat shock protein DmHsp27, wild type (natural protein, UniProt P02518 1-213, looked up)
chain: MSIIPLLHLARELDHDYRTDWGHLLEDDFGFGVHAHDLFHPRRLLLPNTLGLGRRRYSPYERSHGHHNQMSRRASGGPNALLPAVGKDGFQVCMDVSQFKPNELTVKVVDNTVVVEGKHEEREDGHGMIQRHFVRKYTLPKGFDPNEVVSTVSSDGVLTLKAPPPPSKEQAKSERIVQIQQTGPAHLSVKAPAPEAGDGKAENGSGEKMETSK
notes: DmHsp27 (Hsp27), Drosophila melanogaster, wild-type cDNA; also called DmHsp27WT; Drosophila melanogaster Hsp27; source: E. coli BL21 (DE3) pLysS, purified (Ni-NTA, SEC on Superose 6)
B4: DmHsp27 G30A (natural protein, Drosophila melanogaster, UniProt P02518 1-213, looked up)
chain: MSIIPLLHLARELDHDYRTDWGHLLEDDFAFGVHAHDLFHPRRLLLPNTLGLGRRRYSPYERSHGHHNQMSRRASGGPNALLPAVGKDGFQVCMDVSQFKPNELTVKVVDNTVVVEGKHEEREDGHGMIQRHFVRKYTLPKGFDPNEVVSTVSSDGVLTLKAPPPPSKEQAKSERIVQIQQTGPAHLSVKAPAPEAGDGKAENGSGEKMETSK
notes: DmHsp27 (Hsp27), Drosophila melanogaster, with G30A; source: E. coli BL21 (DE3) pLysS, purified (Ni-NTA, SEC on Superose 6)
B5: DmHsp27 S58/75A (natural protein, Drosophila melanogaster, UniProt P02518 1-213, looked up)
chain: MSIIPLLHLARELDHDYRTDWGHLLEDDFGFGVHAHDLFHPRRLLLPNTLGLGRRRYAPYERSHGHHNQMSRRAAGGPNALLPAVGKDGFQVCMDVSQFKPNELTVKVVDNTVVVEGKHEEREDGHGMIQRHFVRKYTLPKGFDPNEVVSTVSSDGVLTLKAPPPPSKEQAKSERIVQIQQTGPAHLSVKAPAPEAGDGKAENGSGEKMETSK
notes: DmHsp27 (Hsp27), Drosophila melanogaster, with S58A and S75A; source: E. coli BL21 (DE3) pLysS, purified (Ni-NTA, SEC on Superose 6)
B6: DmHsp27 F29Y (natural protein, Drosophila melanogaster, UniProt P02518 1-213, looked up)
chain: MSIIPLLHLARELDHDYRTDWGHLLEDDYGFGVHAHDLFHPRRLLLPNTLGLGRRRYSPYERSHGHHNQMSRRASGGPNALLPAVGKDGFQVCMDVSQFKPNELTVKVVDNTVVVEGKHEEREDGHGMIQRHFVRKYTLPKGFDPNEVVSTVSSDGVLTLKAPPPPSKEQAKSERIVQIQQTGPAHLSVKAPAPEAGDGKAENGSGEKMETSK
notes: DmHsp27 (Hsp27), Drosophila melanogaster, with F29Y; source: E. coli BL21 (DE3) pLysS, purified (Ni-NTA, SEC on Superose 6)
B7: DmHsp27 S75A (natural protein, Drosophila melanogaster, UniProt P02518 1-213, looked up)
chain: MSIIPLLHLARELDHDYRTDWGHLLEDDFGFGVHAHDLFHPRRLLLPNTLGLGRRRYSPYERSHGHHNQMSRRAAGGPNALLPAVGKDGFQVCMDVSQFKPNELTVKVVDNTVVVEGKHEEREDGHGMIQRHFVRKYTLPKGFDPNEVVSTVSSDGVLTLKAPPPPSKEQAKSERIVQIQQTGPAHLSVKAPAPEAGDGKAENGSGEKMETSK
notes: DmHsp27 (Hsp27), Drosophila melanogaster, with S75A; source: E. coli BL21 (DE3) pLysS, purified (Ni-NTA, SEC on Superose 6)
B8: DmHsp27 G30R (natural protein, Drosophila melanogaster, UniProt P02518 1-213, looked up)
chain: MSIIPLLHLARELDHDYRTDWGHLLEDDFRFGVHAHDLFHPRRLLLPNTLGLGRRRYSPYERSHGHHNQMSRRASGGPNALLPAVGKDGFQVCMDVSQFKPNELTVKVVDNTVVVEGKHEEREDGHGMIQRHFVRKYTLPKGFDPNEVVSTVSSDGVLTLKAPPPPSKEQAKSERIVQIQQTGPAHLSVKAPAPEAGDGKAENGSGEKMETSK
notes: DmHsp27 (Hsp27), Drosophila melanogaster, with G30R; source: E. coli BL21 (DE3) pLysS, purified (Ni-NTA, SEC on Superose 6)
B9: DmHsp27 S75D (natural protein, Drosophila melanogaster, UniProt P02518 1-213, looked up)
chain: MSIIPLLHLARELDHDYRTDWGHLLEDDFGFGVHAHDLFHPRRLLLPNTLGLGRRRYSPYERSHGHHNQMSRRADGGPNALLPAVGKDGFQVCMDVSQFKPNELTVKVVDNTVVVEGKHEEREDGHGMIQRHFVRKYTLPKGFDPNEVVSTVSSDGVLTLKAPPPPSKEQAKSERIVQIQQTGPAHLSVKAPAPEAGDGKAENGSGEKMETSK
notes: DmHsp27 (Hsp27), Drosophila melanogaster, with S75D; also called phosphomimetic mutant; source: E. coli BL21 (DE3) pLysS, purified (Ni-NTA, SEC on Superose 6)
B10: DmHsp27 F31Y (natural protein, Drosophila melanogaster, UniProt P02518 1-213, looked up)
chain: MSIIPLLHLARELDHDYRTDWGHLLEDDFGYGVHAHDLFHPRRLLLPNTLGLGRRRYSPYERSHGHHNQMSRRASGGPNALLPAVGKDGFQVCMDVSQFKPNELTVKVVDNTVVVEGKHEEREDGHGMIQRHFVRKYTLPKGFDPNEVVSTVSSDGVLTLKAPPPPSKEQAKSERIVQIQQTGPAHLSVKAPAPEAGDGKAENGSGEKMETSK
notes: DmHsp27 (Hsp27), Drosophila melanogaster, with F31Y; source: E. coli BL21 (DE3) pLysS, purified (Ni-NTA, SEC on Superose 6)
B11: DmHsp27 S58A (natural protein, Drosophila melanogaster, UniProt P02518 1-213, looked up)
chain: MSIIPLLHLARELDHDYRTDWGHLLEDDFGFGVHAHDLFHPRRLLLPNTLGLGRRRYAPYERSHGHHNQMSRRASGGPNALLPAVGKDGFQVCMDVSQFKPNELTVKVVDNTVVVEGKHEEREDGHGMIQRHFVRKYTLPKGFDPNEVVSTVSSDGVLTLKAPPPPSKEQAKSERIVQIQQTGPAHLSVKAPAPEAGDGKAENGSGEKMETSK
notes: DmHsp27 (Hsp27), Drosophila melanogaster, with S58A; source: E. coli BL21 (DE3) pLysS, purified (Ni-NTA, SEC on Superose 6)
B12: DmHsp27 S58/75D (natural protein, Drosophila melanogaster, UniProt P02518 1-213, looked up)
chain: MSIIPLLHLARELDHDYRTDWGHLLEDDFGFGVHAHDLFHPRRLLLPNTLGLGRRRYDPYERSHGHHNQMSRRADGGPNALLPAVGKDGFQVCMDVSQFKPNELTVKVVDNTVVVEGKHEEREDGHGMIQRHFVRKYTLPKGFDPNEVVSTVSSDGVLTLKAPPPPSKEQAKSERIVQIQQTGPAHLSVKAPAPEAGDGKAENGSGEKMETSK
notes: DmHsp27 (Hsp27), Drosophila melanogaster, with S58D and S75D; also called phosphomimetic mutant; source: E. coli BL21 (DE3) pLysS, purified (Ni-NTA, SEC on Superose 6)
B13: DmHsp27 S58D (natural protein, Drosophila melanogaster, UniProt P02518 1-213, looked up)
chain: MSIIPLLHLARELDHDYRTDWGHLLEDDFGFGVHAHDLFHPRRLLLPNTLGLGRRRYDPYERSHGHHNQMSRRASGGPNALLPAVGKDGFQVCMDVSQFKPNELTVKVVDNTVVVEGKHEEREDGHGMIQRHFVRKYTLPKGFDPNEVVSTVSSDGVLTLKAPPPPSKEQAKSERIVQIQQTGPAHLSVKAPAPEAGDGKAENGSGEKMETSK
notes: DmHsp27 (Hsp27), Drosophila melanogaster, with S58D; also called phosphomimetic mutant; source: E. coli BL21 (DE3) pLysS, purified (Ni-NTA, SEC on Superose 6)
B14: DmHsp27 F29A (natural protein, Drosophila melanogaster, UniProt P02518 1-213, looked up)
chain: MSIIPLLHLARELDHDYRTDWGHLLEDDAGFGVHAHDLFHPRRLLLPNTLGLGRRRYSPYERSHGHHNQMSRRASGGPNALLPAVGKDGFQVCMDVSQFKPNELTVKVVDNTVVVEGKHEEREDGHGMIQRHFVRKYTLPKGFDPNEVVSTVSSDGVLTLKAPPPPSKEQAKSERIVQIQQTGPAHLSVKAPAPEAGDGKAENGSGEKMETSK
notes: DmHsp27 (Hsp27), Drosophila melanogaster, with F29A; source: E. coli BL21 (DE3) pLysS, purified (Ni-NTA, SEC on Superose 6)
B15: DmHsp27 G32R (natural protein, Drosophila melanogaster, UniProt P02518 1-213, looked up)
chain: MSIIPLLHLARELDHDYRTDWGHLLEDDFGFRVHAHDLFHPRRLLLPNTLGLGRRRYSPYERSHGHHNQMSRRASGGPNALLPAVGKDGFQVCMDVSQFKPNELTVKVVDNTVVVEGKHEEREDGHGMIQRHFVRKYTLPKGFDPNEVVSTVSSDGVLTLKAPPPPSKEQAKSERIVQIQQTGPAHLSVKAPAPEAGDGKAENGSGEKMETSK
notes: DmHsp27 (Hsp27), Drosophila melanogaster, with G32R; source: E. coli BL21 (DE3) pLysS, purified (Ni-NTA, SEC on Superose 6)
B16: DmHsp27 F31A (natural protein, Drosophila melanogaster, UniProt P02518 1-213, looked up)
chain: MSIIPLLHLARELDHDYRTDWGHLLEDDFGAGVHAHDLFHPRRLLLPNTLGLGRRRYSPYERSHGHHNQMSRRASGGPNALLPAVGKDGFQVCMDVSQFKPNELTVKVVDNTVVVEGKHEEREDGHGMIQRHFVRKYTLPKGFDPNEVVSTVSSDGVLTLKAPPPPSKEQAKSERIVQIQQTGPAHLSVKAPAPEAGDGKAENGSGEKMETSK
notes: DmHsp27 (Hsp27), Drosophila melanogaster, with F31A; source: E. coli BL21 (DE3) pLysS, purified (Ni-NTA, SEC on Superose 6)
B17: DmHsp27 G32A (natural protein, Drosophila melanogaster, UniProt P02518 1-213, looked up)
chain: MSIIPLLHLARELDHDYRTDWGHLLEDDFGFAVHAHDLFHPRRLLLPNTLGLGRRRYSPYERSHGHHNQMSRRASGGPNALLPAVGKDGFQVCMDVSQFKPNELTVKVVDNTVVVEGKHEEREDGHGMIQRHFVRKYTLPKGFDPNEVVSTVSSDGVLTLKAPPPPSKEQAKSERIVQIQQTGPAHLSVKAPAPEAGDGKAENGSGEKMETSK
notes: DmHsp27 (Hsp27), Drosophila melanogaster, with G32A; source: E. coli BL21 (DE3) pLysS, purified (Ni-NTA, SEC on Superose 6)

Biological target: the molecule itself
Experiment: native gel or EMSA; 4–12% gradient native Tris-Glycine gel; samples kept and gel run at room temperature (20°C), 150 V, Coomassie blue stain

Binding result, binds:
B1, B2, B3, B4, B5, B6, B7, B8, B9, B10, B11, B12, B13, B14, B15, B16, B17
